This data set deals with the molecule itself. Description: cryo-EM imaging of cells; unlabelled purified S-layer proteins added to Vps4 E209Q ΔslaA cells at 75°C for 1 h; cells plunge frozen and imaged (Glacios 200 kV); S-layer lattice seen on the cell surface.

B1: exogenous unlabelled S-layer protein SlaA, purified from wild-type S. acidocaldarius DSM639 (natural protein, UniProt Q4J6E5 25-1424, looked up)
chain: ITTTALTPPVSAGGIQAYLLTGSGAPASGLVLFVVNVSNIQVSSSNVTNVISTVVSNIQINAKTENAQTGATTGSVTVRFPTSGYNAYYDSVDKVVFVVVSFLYPYTTTSVNIPLSYLSKYLPGLLTAQPYDETGAQVTSVSSTPFGSLIDTSTGQQILGTNPVLTSYNSYTTQANTNMQEGVVSGTLTSFTLGGQSFSGSTVPVILYAPFIFSNSPYQAGLYNPMQVNGNLGSLSSEAYYHPVIWGRALINTTLIDTYASGSVPFTFQLNYSVPGPLTINMAQLAWIASINNLPTSFTYLSYKFSNGYESFLGIISNSTQLTAGALTINPSGNFTINGKKFYVYLLVVGSTNSTTPVEYVTKLVVEYPSSTNFLPQGVTVTTSSNKYTLPVYEIGGPAGTTITLTGNWYSTPYTVQITVGSTPTLTNYVSQILLKAVAYEGINVSTTQSPYYSTAILSTPPSEISITGSSTITAQGKLTATSASATVNLLTNATLTYENIPLTQYSFNGIIVTPGYAAINGTTAMAYVIGALYNKTSDYVLSFAGSQEPMQVMNNNLTEVTTLAPFGLTLLAPSVPATETGTSPLQLEFFTVPSTSYIALVDFGLWGNLTSVTVSAYDTVNNKLSVNLGYFYGIVIPPSISTAPYNYQNFICPNNYVTVTIYDPDAVLDPYPSGSFTTSSLPLKYGNMNITGAVIFPGSSVYNPSGVFGYSNFNKGAAVTTFTYTAQSGPFSPVALTGNTNYLSQYADNNPTDNYYFIQTVNGMPVLMGGLSIVASPVSASLPSSTSSPGFMYLLPSAAQVPSPLPGMATPNYNLNIYITYKIDGATVGNNMINGLYVASQNTLIYVVPNGSFVGSNIKLTYTTTDYAVLHYFYSTGQYKVFKTVSVPNVTANLYFPSSTTPLYQLSVPLYLSEPYYGSPLPTYIGLGTNGTSLWNSPNYVLFGVSAVQQYLGFIKSISVTLSNGTTVVIPLTTSNMQTLFPQLVGQELQACNGTFQFGISITGLEKLLNLNVQQLNNSILSVTYHDYVTGETLTATTKLVALSTLSLVAKGAGVVEFLLTAYPYTGNITFAPPWFIAENVVKQPFMTYSDLQFAKTNPSAILSLSTVNITVVGLGGKASVYYNSTSGQTVITNIYGQTVATLSGNVLPTLTELAAGNGTFTGSLQFTIVPNNTVVQIPSSLTKTSFAVYTNGSLAIVLNGKAYSLGPAGLFLLPFVTYTGSAIGANATAIITVSDGVGTSTTQVPITAENFTPIRLAPFQVPAQVPLPNAPKLKYEYNGSIVITPQQQVLKIYVTSILPYPQEFQIQAFVYEASQFNVHTGSPTAAPVYFSYSAVRAYPALGIGTSVPNLLVYVQLQGISNLPAGKYVIVLSAVPFAGGPVLSEYPAQLIFTNVTLTQ
modifications: highly glycosylated
notes: S-layer protein SlaA, Sulfolobus acidocaldarius DSM639, gene saci2355; endogenous protein extracted from the cell surface; The purified preparation also holds SlaB (mass spectrometry, Coomassie gel); also called unlabelled exogeneous S-layer proteins; purified S-layer proteins
Take B1: the binding result is given as “binds”.
